In the nanobody polyreactivity screen of Harvey et al. (2022):

Assay: yeast display, Sf9 membrane polyspecificity reagent, FACS + sequencing; frameworks hold sequencing errors
Method in brief: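 A nanobody's polyreactivity label depends on the gate it was sorted from. Yeast display cells were stained with 10% biotinylated, detergent-solubilized Sf9 membrane reagent for 1 hour at 4 °C, enriched on streptavidin microbeads and sorted by FACS. The low and high (top ~1%) gates were set on anti-HA fluorescence for expression and streptavidin fluorescence for reagent binding.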

| Sequence | polyreactivity (PSR sort gate) |
| --- | --- |
| QVQLVESGGGLVHAGGSLRLSCAASGYTFPLYAMGWYRQAPGKERELVAGINWRGGSTYYADSVKCRFTISRDNAKNTVYLQIKSLKPEDTAVYYCAADFSRYYTGGYDYWGQGTQVTVSS | low polyreactivity |
| QDQLVDSGGVLVQAGGSLRLTCAASGSTFARNAMGWYRQAPGKERELVAAISSGGTTNYADSVKARFTISRDNAKNTVYLQMNSLKPEDTAVYYCNAGFRNVLTSGYLYDYWGQGTQVTVSS | low polyreactivity |
| QVQLVESGGGLVQAGGSLRLSCADSGNIFSTYAMGWYRQEPGKERELVASISENGGSTYYADSVKGRFTISRDNAKNTVYLQMNCLKPEDTAVYYCAIGPLYSLFFQHDAPYRYGYWGQGTQVTVSS | low polyreactivity |
| QVQIEESGGGLVQAGGSLRLSCAASGLIFYYYAMGWYRQAPRKERELVAVFTESGYSTYYADYVKGLFTISRDYAKNNDYLQMNRLKPEDTAVYYCAAHGRAYVGGVGDDYWGQGTQVTVSS | low polyreactivity |
| QVQLVESGGGLVQAGGSLRLSCAASGRIFEPYAMGWYRQAPGKERELVAAISWSGTSTRYADSVKGRFTISRDNAKNTVYLQMNSLKPEDTAVYYCAARGNNPARGGYWGQGTQVTVSS | high polyreactivity |
| QVQLVESGGGLVQAGGSLRLSCAASGRTFRTYAMGWYRQAPGKERELVAAITTSGSSTYYADSVNGRFTISRDNAKKTVYLQMNILKPEDTAVYYCAAARAAIVPGYYSWGQGSQVTVSS | low polyreactivity |
| QVQLVESGGGLVQAGGSLRLSCAASGRIFVYYAMGWYRQAPGKERELVATISSGGSTYYADSVKGRFTISRDNAKNTVYLQMNSLKPEDTAVYYCAADNVIRYLAYYYKGDYWGQGTQVTVSS | low polyreactivity |
| QVQLVESGGGLVQAGGSLRLSCAASGSIFYRNAMGWYIQAPGKERELVAAISRRGGITYYADSVKGRFTISRDNAKNTVYLQMNSLKPEDTAVYYCYTDTGGMDYWGQGTQVTVSS | high polyreactivity |
| QVQLVDSGGGLVQAGGSLRLSCAASGFIFTDYAMGLYRQAPGQEREFVAAIDWSGGNTYYADSVTGRFTISRDNAKNTVYLQMNSLKPEDTAVFYCAASGSAREYVYWGQGTQVTVSS | low polyreactivity |
| QVQLQERSGGLVQAGGSLRLSCAASGYIFNNVNMGWYSQSPGKEREFVAAVGSGSSTNYADSVKGRFTISRDNTKNTGYLHMNSLKPEDTAVYYCNAVRRTGGHGDYWGLGTQVTVSS | high polyreactivity |
| QVQLVESGGGLVQAGGSLRLSCAASGSTSYDYAMGWYRQAPGKERELVAAISRRGGSTYYADSVKGRFTISRDNAKNTVYLQMNSLKPEDTAVYYCAARSYSYLGWFSYDYWGQGTQVTVSS | low polyreactivity |
| QVQHVESVGGLLQAGGSLPLSCASSGSTFTGYAMGRYREAPGIVRELVAAISSSGGRTYYADSVKGRFTISRDNAKNTVYLQMNSLKPEDTAVYYCAVRPRYRPSGYVEYDSWGQSTQVTVSS | high polyreactivity |
| QDKLVESGGGLVKAGGSLRLSCAASGSIFATYAMVWYRQAPGKERELVAAISKSTDSTYYADSVKGRFTISRDNAKNNVYLQMNSQKPEDTAVYYCAAVQRYKGLQDDSWGQGTQVTVSS | high polyreactivity |
| QVQLVESGGGLVQAGGSLRLSCAASGITFFYYAMGWYTQAPGKERELVAAISTSGGRTYYADSVKGRFTISRDNAKNTVYLQMHSLKPEDTAVYYCAARSRVQPAGPRYDYWGQGTQVTVSS | high polyreactivity |
| QVQLVESGGGLVQAGGSLRLSCAASGIFVYYAMGWYRQAPGKERELVAAISSTGTSTYYADSVKGRFTISRDNAKNTVYLQMNSLKPEDTAVYYCAARGYAKRGYWGQGTQVTVSS | high polyreactivity |
| QVQLVESCGGLVQAGGTLRLRCAASGFTFYPYSMGWYRQAPWKERELVAAITRGGITYYADSVKGRFTISRDYAKNTVYLQMKSLKPEDTAVYYCNAGWYVSYRWYRSDYWGQGTQVTVSS | high polyreactivity |
| QVQLVESGGGLVQAGGSLRLSCAASGSIFGDNVMGWYRPAPGKERELVAAISRSGGSTYYADSVKGRFTISRDNAKNTVYVEMNSLIPEDSSVYYCAARYWSWRSFKVDYWGQGTQVTVSS | high polyreactivity |
| QVNLVESGGGLVQAGGSLRLSCAASGLTFARNAMGWYSQAPGKERELVASITSVGRTNYADSVKGRFTISRDNAKNTVYLEMNSLKPEDTAVYFCGAKPSWHGVYYWGQGTQVTVSS | low polyreactivity |
| QVQLVESGGGIVQAGGSLRLSCAASGRTLQIYAMGRYRQAPGKERELVAAISSSGGSTYYADSVKGRFTISRDNEKNTVYLQMNSLKPEDTAVYYCAVDGYGYKDDYWGQGTQVTVSS | high polyreactivity |
| QVHLVESGGGLVQAGGSLRLSCAASGRTLGGYAMGWYRQAPGKERELVAVITWNGGSTYADSVKGRFTISRDNAKNTVYLQRNSLKPEDTAVYYCAVYIPRGGRSGYWGQGTQVTVSS | high polyreactivity |
| QVQLVESGGGLVQAGGSLRLSCAASGRIFGIYAMRWYRQAPGKERELVAAISYSGGSTYYADSVKGRFTISRDNAKNTVYLQMNSLNPEDTAVYYCNADYYASYYPYYSIRLDYLGQGTQVTVSS | low polyreactivity |
| QVQLVESGGGLVQAGGSLRLSCAASGFIFYRYAMGWYRQAPGKERELVAAISKSGSSTYYADSVKGRFTISRDNAKNTVYLQMNSLKPEDTAVYYCARDRQSRSLLEYDYWGQGTQVTVSS | low polyreactivity |

| Sequence | polyreactivity (PSR sort gate) |
| --- | --- |
| QVQLVESGGGLVQAGGSLRLSCAAYGSTYGTNALGWYRQAPGKERELVAAITSRVGRTYYADSVKGRFTISRDNAKNTVYLQMNSLKPEDTAVYYCAASRLVRYQSRYGSWGQGTQVTVSS | high polyreactivity |
| QVQLVESGGGLVQAGGSLRLSCAASGSTFFPYAMGWYRQAPGKERELVAAIRWSGGRTYYADSVKGRFTISRDNAKNTVYLQMNSLKPEDTAVYYCAADKYLDYDYWGQGTQVTVSS | high polyreactivity |
| QVQLEESGGGLVQAGGSLRLTCDASGLIFSYYAMGWYRQAPGKERELVAAITGSGGTTYYADSVKGRFTISRDNAKNTVLLQMNSLKPEDTAVYYCATPPPEVWQRWYREYDYWGQGTQVTVSS | low polyreactivity |
| QVQLVESGGGLVQAGGSLRLSCAASGRISVFNAMGWYREAPGKERELVAAITSGGSTNYADSVKGRFTISRDNAKNTVYLQMNSLKPEDTAVYYCNADVYHSHEPHYDYWGQGTQVTVSS | low polyreactivity |
| QVQLVESGGGLVQAGGSLRLSCAASGRNFKHYAMGWYRQAPGKERELVAAISYSGGSPKYADSVKGRFTISRYNAMNTVYLQMNSLKPEDTAVYYCAARFFTPFRFSYDYWGQGTQVTVSS | high polyreactivity |
| QVQLVESGGGLVQAGGSLRLSCAASGGTFRYYAMGRYRPAPGKERDLVARIRYNGGSTYYADSVKGRFTISRDNAKNTVSLQMKSLKPEDTAVDYCAAVGRYPRTWMNYWGQGNQVTVSS | high polyreactivity |
| QVQLVESAGGLVQAGGSLRLSCAASGRTFYSYAMGWSRQAPGKEREFVAAITKSGGSTYYADSVKGRFTISRDNAKNTVYLQMNSLKPEDTAVYYCAAGLVATFSRPGRASYRYNYWGQGTQVTVSS | high polyreactivity |
| QVQLVESGGGLVQAGGSLRLSCAASGRIFWGYAMGWYRQAPGKERELVARITSGGDTYYADSVKGRFTISRDNAKNTVYLQMNSLKPEDTAVYYCAISTAVKPYAYRESGFIYDYWGQGSQVTVSS | low polyreactivity |
| QVQLVESGGGLVQAGGSLRLSCAASGSIFSFYAMGWYRQAPGKRELVAAISGNGGSTFYADSVKGRFTISRDNAKNTVYLQMNSLKPEDTAVYYCAAYSYRYKYYYWGQGTQVTVSS | high polyreactivity |
| QVQLVESGGGLVQAGGSLRLSCAASGFTFNDYAMGWYRQAPGKERELVAAIDWSGGRTYYADSVKGRFTISRDNAKNTVYVQMNSLKPEDTAVYYCAAVLYSRLYWYRLDYWGQGTQVTVSS | low polyreactivity |
| QVQLVESGGGLVQAGGSLRLSCAASGRIFWFNSMGWYRQAPGKERELVAAIDSVGSTYYADSVKGRFTISRDNAKNTVYLQMNSLKPEDTAVYYCAKSTRPVSGVPDGPLYEYWGQGTQVTVSS | low polyreactivity |
| QVQLGESGGGIVQAGGSLRLSCAASGRTLQQYVMGWYRQAPGKETELVAAITRGGRTNYADSVKGRFTISRDNAKNTVYLQRNSLKPEDTAVYYCNSRYPSRLVAWLDYWGQGTQVTVSS | low polyreactivity |
| QVQLVESGVGLVQAGGSLRLSCAASGRIFFNNAMGWYIQAPGKERELVAGITSGSSTNYADSVKGRFTISRDNAKNTVYLQMNSLKPEDTAVYYCNAGDFERDVVVFIQHGGYYWGQGTQVTVSS | low polyreactivity |
| QVQLQESGGGLVQAGGSLRLSCAASGSIFHLHIMCWYRQAPGKERESVAAISNGTSTYYADSVKGRFTICRDNAKNTVYLQMNSPKPDDTAVYYCAALFLVSKHHHYWGEGTQVTVSS | low polyreactivity |
| QVQLVESGGGLVQAGGSLRLSCDASGITFYSYAMGWYRQAPGKEREFVAAITRGGGITSYADSVKGRFTISRDNAKNTVYLQMNSLKPEDTAVYYCAVYTYHYGRSTYYKYDYWGQGTQVTVSS | high polyreactivity |
| QVQLVESGVGLVQAGGSLRLSCAASGSIFGVNMGWYRQAPGKERELVASITSGGSTNYADSVKGRFTISRDNAKNTVYLQMNSLKPEDTAVYYCATDRYVWGQGTQVTVSS | low polyreactivity |
| QVQLVESVGGLVQAGGSHRLSGAASGRTLYRYGLGWYRQAPGKDRELVAVIDRGGSTNYADSVKGRFTISRDNAKNTVYLQMNSLKPEDTAVYYCAKRWTAREAWRKGMGYWGQGTKVTVSS | high polyreactivity |
| QVQLVESGGGLVQAGGSLRLSCAASGRIFNGNAMGWYRQAPGKEREFVAAITWNGGRTYYADSVKGRFTISRDYAKNTVYLQMNSLKPEDTAVYYCNADPYHRRSSGDYWGQGTQVTVSS | high polyreactivity |
| QVQLVESGGGLVQAGGSLRLSCAASGSIFDSNAMGWYRQAPGKERELVAAMDDAGATTYYADSVQGRFTISRDNAKNTVYLQMNSLKPEDTAVYYCAAETYTGSLAYYRVYYYWGQGTQVTVSS | low polyreactivity |
| QVQLVESGGGLVQAGGSLRLICAASGRIFPSYTMGWYRQAPGKERELVAGITKSGSSTYYADSVKGRFTISRDNAKNTVYLQMNSLKPEDTAVYYCAAVYGNPSYRYGYWGQGTQVTVSS | high polyreactivity |
| QVQLVESGGGLVQAGGSLRLSCAASGRTFTVYAMGWNRQAPGKEREFVATSSWSGGRTYYADSVKGRFTISRDNAKYTVYLQMNSLKPEDTAVYYCAAQEYTTRFYFNRDYWGQGTQVTVSS | low polyreactivity |
